Where a chain is given by its changes, count along the chain named. Read-outs that look alike come from different tables or passages of the source.
B1: M2S521_623 Nb-Fc (Fc fusion)
chain: EVQLQQSGPELVKPGASVKISCKASGYTFTDYYMKWEKQSHGKSLEWIGDINPNNGGTRYNQKFRGKATLTVDKSSSTAYMELRSLTSEDSAVYYCARLEDDYYGYAVDYWGQGTSVTVSS
notes: also called LVGN-S521623
B2: MS521_35 Nb-Fc (Fc fusion)
chain: EVQLQQSGPELVKPGASVKISCKASGYTFTDYYMKWVKQRHGQSLEWIGNINPTNGDTNYSQNFKGKATLTVDKSSTTAYMELRSLTSEDSAVYYCARLEDGYYGYAVDYWGQGTSVTVSS
notes: also called LVGN-S52135
B3: M2S521_378 Nb-Fc (Fc fusion)
chain: B1 chain with E37V, N54K, R59N, R65K, G66D, D102G, V108I, G112S
notes: also called LVGN-S521378
B4: M2S521_193 Nb-Fc (Fc fusion)
chain: B1 chain with E37V, T58A, R65K, K67R, A97S, D102G
notes: also called LVGN-S521193
B5: M2S521_72 Nb-Fc (Fc fusion)
chain: B1 chain with E37A, D50H, N54V, G57D, R59S, R65K, A79V, D102G, A107T, V108M
notes: also called LVGN-S52172
B6: M320_5 Nb-Fc (Fc fusion)
chain: EVQLQQSGPELVKPGASVKMSCKASGYTFTDYYIKWEKQSHGKSLEWIGDINPKNGETFYNQQFKGKATLTVDKSSSTAYMQLNSLTSEDSAVYYCARKEYGDYGYAVDYWGQGTSVTVSS
notes: also called LVGN-S3205
B7: M2S320_75 Nb-Fc (Fc fusion)
chain: B6 chain with I34M, E37L, S40N, K54N, E57D, Q63K, K74T, V108T
notes: also called LVGN-S32075
B8: M2S320_377 Nb-Fc (Fc fusion)
chain: B6 chain with I34V, E37K, K54N, E57D, Q63K, G66D, D103N, Y104F
notes: also called LVGN-S320377

What was measured:
[1] = molecular target: T1, SARS-Cov2 Spike Active Trimer SAT (R&D Systems; Catalog No. 10549-CV) (SARS-CoV-2, UniProt P0DTC2 16-1211); test: ELISA, serially diluted purified Nb-Fc against SAT antigen
T1 construct: also called SARS-COV2 Spike Active Trimer protein; recombinant SAT protein

[2] = molecular target: T1, SARS-Cov2 Spike Active Trimer SAT (R&D …); test: SPR (Carterra)
[3] = molecular target: T1, SARS-Cov2 Spike Active Trimer SAT (R&D …)
[4] = molecular target: T1, SARS-Cov2 Spike Active Trimer SAT (R&D …); remark: listed apart in the source

Row | Binder | EC50 [1] [nM] | Kd [2] [nM] | Kd [3] [nM] | koff [4] [s⁻¹] | kon [4] [M⁻¹ s⁻¹] | Kd [4] [nM]
1 | B1 | 0.054 |  |  |  |  | 
2 | B2 | 0.024 | 5.3 | 9.09 | 0.000685 | 75300 | 
3 | B3 | 0.081 |  |  |  |  | 
4 | B4 | 0.085 |  |  |  |  | 
5 | B5 | 0.063 |  |  |  |  | 
6 | B6 | 0.024 | 3.17 | 1.21 | 0.000143 | 135000 | 1.06
7 | B7 | 0.068 |  |  |  |  | 
8 | B8 | 0.097 |  |  |  |  | 
